According to US20220080036A1 (VANDERBILT UNIVERSITY, published 2022):
Residue numbers refer to the chain shown, from its start.

T1: IsdA (iron-regulated surface determinant protein A), recombinant (Staphylococcus aureus, UniProt P0C1S5 58-316)
T1 construct: also called recombinant IsdA; Isd antigen
T1 chain: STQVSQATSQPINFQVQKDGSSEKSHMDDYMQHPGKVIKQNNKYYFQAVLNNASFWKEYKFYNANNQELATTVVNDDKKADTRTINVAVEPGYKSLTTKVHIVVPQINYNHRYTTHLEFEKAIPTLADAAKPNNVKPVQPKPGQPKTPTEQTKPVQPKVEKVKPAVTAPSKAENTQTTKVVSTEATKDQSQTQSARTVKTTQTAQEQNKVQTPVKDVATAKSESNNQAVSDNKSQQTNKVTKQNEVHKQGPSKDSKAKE

B1: STAU-64 (antibody, V domains shown)
VH: EVQLVESGGGLVKPGGSLRLSCAASGFSFSYYSMNWVRQAPGKGLEWISSISSSGEYIYYADSVKGRFTISRDNAENSLYLQMNSLRAEDTAVYYCAKVVSQQSLDYWGQGTLVTVSS
VL: DIVMTQSPSSLSVSVGDRVTITCRASQSISTYLNWYQQKPGKAPKLLISGGSNLQSGVPSRFSGSGSGTDFTLTIISLQPEDFATYYCQQSYSTRYSFGQGTKLEIK
B2: STAU-280 (antibody, V domains shown)
VH: EVQLVESGGGLVQTGGSLRLSCAASGFTFSRYNMNWVRQAPGKGLEWVSFISATSSSIYYADSVKGRFTISRDNAKNSLDLQMNSLRDEDTAVYFCVREDAAIFGVGSWFDPWGQGTLVTVSS
VL: EIVMTQSPATLSVSPGERATLSCRASQSVSSNLAWYQQKPGQAPRLLIYGASTRATGIPARFSGSGSGTEFTLTISSLQSEDFAVYFCQEYNDWPLYTFGQGTKLEIK
B3: STAU-402 (antibody, V domains shown)
VH: QLQLQESGPGLVKPSETLSLTCTVSGGSISSSSYYWGWIRQPPGKGLEWIGSIYYSGSTYYNPSLKSRVTISVDTSKNQFSLKLSSVTAADTAVYYCARPNSSGWSYYFDYWGQGTLVTVSS
VL: QSVLTQPPSVSGAPGQRVTISCTGTSSNIGADYDVHWYQQLPGTAPKLLIYGNINRPSGVPDRFSGSRSGTSASLAITGLQADDEADYYCQSYDSSLSGSVVFGGGTKLTVL
B4: STAU-401 (antibody, V domains shown)
VH: QVQLVQSGPEARKPGTSVKVSCKTSGYTFSSYGIAWVRQAPGQGLEWMGWISGYSDYTIYAQRLQGRVSMTTDPYTSTAYMELRSLRPDDTAVYYCATLSFGELVENKLDFWGQGTLVTVSS
VL: B3 VL with D34A, N53T
B5: STAU-299 (antibody, V domains shown)
VH: QVTLRESGPALVKPTETVTLTCTFSGFSLSTSGMCVTWLRQPPGKALEWLALIDWEDDKYYSTSLKTRFTISKDTSKNQVVLTMTNMDPVDTATYYCARTPTYRGAFDMWGQGTLVTVSS
VL: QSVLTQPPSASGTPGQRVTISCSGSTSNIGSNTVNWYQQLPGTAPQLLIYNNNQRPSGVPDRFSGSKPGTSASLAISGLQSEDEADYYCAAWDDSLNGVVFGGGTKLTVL
B6: STAU-307 (antibody, V domains shown)
VH: QVQLVQSGAEVKKTGSSVKVSCTASGATFNTNDLMWVRQAPGQGLEWMGGIVPVFGRPKYAKKFHGRLIISADEFTTTFYMELTSLTFDDTAIYYCARSGSTESPIQHIDFWGQGTLVTVSS
VL: SYVLTQPPSVSVAPGQTATITCGGDNIATFSVHWYRQKPGQAPVLVVYDDLDRASGIPARFSGSNSGNTATLTISRVEPGDEADYFCQVWEISSDEYVFGPGTSVTVL
B7: STAU-281 (antibody, V domains shown)
VH: QVQLVQSGAEVKRPGSSVRVSCKDSGDSFRRYVINWVRQAPGQGLEWMGGIIPIFDKAKSVQKFQDRLTITADESTSTSYMELSSLTSEDTAVYYCARKEDGRRDDVFDIWGQGTLVTVSS
VL: EIVMTQSPATLSVSLGERATLSCRASHSVGSSLAWYQQKPGLAPRLLIYGVSTRATGIPARFSGSGSATEFTLTISSLQSEDLAAYHCQQYDNWPFTFGQGTKLEIK
B8: STAU-389 (antibody, V domains shown)
VH: QVQLVQSGAEVKQSGSSLKVSCKVSGGNLRSYGISWVRQAPGQGLEWMGVIIPIFGAPTYAQKFQGRVTFVADDGNNVVFMELSSLRSEDTAVYYCARDWPSITVAVDAINFAMDVWGQGTLVTVSS
VL: QSALTQPRSVSGSPGQSVTISCTGTNNDVGSYDHVSWYQQHPGKAPKFIIYDVSTRPSGVPDRFSGSKSDNTASLTISGLQAEDEADYYCCSFAGSYTYVFGTGTTVTVL
B9: STAU-399 (antibody, V domains shown)
VH: B8 VH with Q13K, S14P, A57T, F70L, V71A, G75S, V78I, I110T, F112Y, A113G
VL: B8 VL with N26S, S31Y, T55K, T106K
B10: STAU-328 (antibody, V domains shown)
VH: QVQLQQWGAGLLKPSETLSLTCAVYGGSFSGYYWSWIRQPPGKGLEWIGEINHSGSTNYNPSLKSRVTISVDTSKNQFSLKLSSVTAADTAVYYCARDVGDRYYFDYWGQGTLVTVSS
VL: QSALTQPASVSGSPGQSITISCTGTSSDVGSYNLVSWYQQHPGKAPKLMIYEGSKRPSGVSNRFSGSKSGNTASLTISGLQAEDEADYYCCSYAGSSTFVVFGGGTKLTVL
B11: STAU-407 (antibody, V domains shown)
VH: QLQLQESGPGLVKPSETLSLTCSVSGGSISRTYYYWDWIRQPPGKGLEWIGSVYYSGSTYYNPSLKSRVTMSVDTSKNLFSLKLSSVTAADTAVYYCASHESWQQLISWGQGTLVTVSS
VL: QAVLTQPSSLSASPGASASLTCTLRSGINVGIYRIYWYQQKPGSPPQYLLRYKSDSDKHQGSGVPSRFSGSKDASANAGILLISGLQSEDEADYYCMIWHSSAVAFGGGTKLTVL
B12: STAU-218 (antibody, V domains shown)
VH: QVTLKESGPVVVKPTETLTLTCTVSDVSLRNVQMGVSWIRQPPGKALEWLAHIFSHDEKAYVTSLENRLTISRDTSNSQVVLTMTNMDPVDTGTYYCARIRSTSGEEEDPFAFWGQGTLVTVSS
VL: DIQMTQSPSSLSASVGDRVTITCRASQSVTTWLAWYQQKPGKAPKLLIYSASSLESGVPSRFSGSGSGTDFTLTISNLQPDDFATYYCQQYRFYWTFGQGTKVESK
B13: STAU-229 (antibody, V domains shown)
VH: EVQLVQSGAEVKKPGATMKISCKVSGYPFTDYYMHWVQQAPGKGLEWMGLIDPEDGETNYAEKFQGRVTITADTSTDTVYMELSSLRSEDTAVYFCAKPHCSSRTCQRVSGYYFGMDVWGQGTLVTVSS
VL: QSALTQPPSASGSPGQSVTISCTGSSNDVGDYNFVSWYQQHPGKPPKLMIYEVTKRPSGVPDRFFGSKSGNTASLTVSGLQADDEADYYCSSYAGGNSVVFGGGTKLTVL
B14: STAU-139 (antibody, V domains shown)
VH: EVQLVQSGAEVKKPGESLKISCKGSGYSFTSYWIGWVRQMPGKGLEWMGIIYPGDSDTRYSPSFQGQVTISADKSISTAYLQWSSLKASDTAMYYCARPPGLRGDAFDIWGQGTLVTVSS
VL: QSALTQPPSASGSPGQSVTISCTGTSSDVGGYNYVSWYQQHPGKAPKLMIYEVSKRPSGVPDRFSGSKSGNTASLTVSGLQAEDEADYYCSSYAGSNNLVFGGGTKLTVL
B15: STAU-201 (antibody, V domains shown)
VH: QVQLVQSGPEVKKPGASVKVSCKASGYTFTNYGLTWVRQAPGKGLEWIGWISPYTGRAKFALKFQGRFTLTTDTSTTTAYMEVRSLKSDDSAVYYCAREGIKDASAFDFWGQGTLVTVSS
VL: QSALTQPASVSGSPGQSITISCTGTGSDIGGYNHVSWYHHYPGKAPKLLIFGVTHRPSGVSDRFSGSKSGVTAFLTISGLQAEDEADYYCSSYTDNTSWVFGGGTKVTVL
B16: STAU-239 (antibody, V domains shown)
VH: QVQLVQSGAEVKKPGSSVKVSCRASGGPFNTYVITWVRQAPGQGLEWMGGIVPVFNTSHSAQKFQGRVKISADTSTNTVYMELTSLTFEDTAVYFCARDGAAAPLNWYDPWGQGTLVTVSS
VL: SYVLTQPPSVSLAPGQTATLTCGGNNIGSKSVHWYQKKPGQAPVLVVYDVRDRPSGIPERFSGSSSENTATLTLSRVEAEDEADYYCQVWESTTSHVIFGGGTKLTVL
B17: STAU-221 (antibody, V domains shown)
VH: QVTLRESGPALVKPTQTLTLTCTFSGFSLTSSGMCVSWIRQPPGKALEWLALIDWDDDKYYITSLKTRLIISKDTSKNQVVLTMTNMDPVDTATYYCARTQSGYSGYYVDYWGQGTLVTVSS
VL: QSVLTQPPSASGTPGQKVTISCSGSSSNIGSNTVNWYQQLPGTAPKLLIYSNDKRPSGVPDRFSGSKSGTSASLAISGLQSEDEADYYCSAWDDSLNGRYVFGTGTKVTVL

Legend:
Test in all cases: ELISA on coated recombinant antigen, half-maximal binding
[1] = biological target: T2, IsdB (iron-regulated surface determinant protein B), recombinant (Staphylococcus aureus, UniProt A6QG30 41-609)
T2 construct: also called recombinant IsdB
T2 sequence (A6QG30 41-609 limits assumed): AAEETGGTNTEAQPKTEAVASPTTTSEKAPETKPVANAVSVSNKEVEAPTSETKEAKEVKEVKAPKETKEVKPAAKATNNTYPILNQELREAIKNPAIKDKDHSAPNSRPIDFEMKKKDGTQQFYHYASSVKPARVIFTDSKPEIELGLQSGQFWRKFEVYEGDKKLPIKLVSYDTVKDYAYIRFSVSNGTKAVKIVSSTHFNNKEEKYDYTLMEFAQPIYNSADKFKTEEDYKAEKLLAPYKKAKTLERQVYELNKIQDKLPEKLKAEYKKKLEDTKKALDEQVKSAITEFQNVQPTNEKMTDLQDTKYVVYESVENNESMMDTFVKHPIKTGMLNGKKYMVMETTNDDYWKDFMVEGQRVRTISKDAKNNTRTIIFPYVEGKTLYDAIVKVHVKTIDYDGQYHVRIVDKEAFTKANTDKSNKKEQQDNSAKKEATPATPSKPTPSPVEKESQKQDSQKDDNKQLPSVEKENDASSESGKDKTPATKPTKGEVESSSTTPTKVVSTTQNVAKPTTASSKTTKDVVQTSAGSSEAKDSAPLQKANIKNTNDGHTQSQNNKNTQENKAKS

[2] = biological target: T1, IsdA (iron-regulated surface …)
[3] = biological target: T3, IsdH (iron-regulated surface determinant protein H), recombinant (Staphylococcus aureus)
T3 construct: also called recombinant IsdH
T3 sequence (Q2FG07 41-864): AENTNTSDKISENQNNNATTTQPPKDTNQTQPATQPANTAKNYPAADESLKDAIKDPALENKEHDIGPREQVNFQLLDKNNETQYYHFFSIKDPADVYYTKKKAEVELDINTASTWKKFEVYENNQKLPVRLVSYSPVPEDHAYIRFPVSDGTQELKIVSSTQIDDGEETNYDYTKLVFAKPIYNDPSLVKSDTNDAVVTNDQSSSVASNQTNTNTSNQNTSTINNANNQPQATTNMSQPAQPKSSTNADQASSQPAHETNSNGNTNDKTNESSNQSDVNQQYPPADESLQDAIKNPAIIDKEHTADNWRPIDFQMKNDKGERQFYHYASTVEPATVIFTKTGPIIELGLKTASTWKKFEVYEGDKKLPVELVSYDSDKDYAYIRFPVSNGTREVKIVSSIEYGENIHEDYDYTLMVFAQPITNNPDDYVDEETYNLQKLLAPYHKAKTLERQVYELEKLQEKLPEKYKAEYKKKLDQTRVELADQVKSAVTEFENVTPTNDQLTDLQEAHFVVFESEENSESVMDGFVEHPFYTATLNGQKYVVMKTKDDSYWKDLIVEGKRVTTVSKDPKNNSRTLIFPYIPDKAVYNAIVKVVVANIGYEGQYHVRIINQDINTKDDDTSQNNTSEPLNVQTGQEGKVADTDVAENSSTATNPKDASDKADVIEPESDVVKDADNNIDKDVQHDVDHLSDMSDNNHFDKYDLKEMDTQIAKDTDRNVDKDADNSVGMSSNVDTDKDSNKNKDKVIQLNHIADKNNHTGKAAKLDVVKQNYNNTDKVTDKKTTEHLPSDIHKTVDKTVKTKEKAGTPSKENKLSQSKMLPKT

Binder	EC50 [1]	EC50 [2]	EC50 [3]
B1	140 ng/mL		
B2	7600 ng/mL	52100 ng/mL	
B3	3400 ng/mL	8200 ng/mL	
B4	3700 ng/mL	25100 ng/mL	
B5	12700 ng/mL	220 ng/mL	
B6	0.28 ng/mL	10 ng/mL	0.01 ng/mL
B7	2 ng/mL		2.7 ng/mL
B8	130 ng/mL		340 ng/mL
B9	530 ng/mL	8700 ng/mL	950 ng/mL
B10	80 ng/mL		60 ng/mL
B11		1600 ng/mL	3100 ng/mL
B12	4100 ng/mL	80 ng/mL	
B13	10 ng/mL	700 ng/mL	
B14			2700 ng/mL
B15	9500 ng/mL	260 ng/mL	
B16	1 ng/mL	70 ng/mL	
B17	1900 ng/mL	30 ng/mL	
